Test results reported in US20210252069A1 (published 2021).

Target: T1, IL13Rα2 (human, UniProt Q14627 27-380)
T1 construct: whole, on cells; Endogenous target on U87 cells; also called IL-13Ra2; IL13Ra2
T1 sequence (looked up): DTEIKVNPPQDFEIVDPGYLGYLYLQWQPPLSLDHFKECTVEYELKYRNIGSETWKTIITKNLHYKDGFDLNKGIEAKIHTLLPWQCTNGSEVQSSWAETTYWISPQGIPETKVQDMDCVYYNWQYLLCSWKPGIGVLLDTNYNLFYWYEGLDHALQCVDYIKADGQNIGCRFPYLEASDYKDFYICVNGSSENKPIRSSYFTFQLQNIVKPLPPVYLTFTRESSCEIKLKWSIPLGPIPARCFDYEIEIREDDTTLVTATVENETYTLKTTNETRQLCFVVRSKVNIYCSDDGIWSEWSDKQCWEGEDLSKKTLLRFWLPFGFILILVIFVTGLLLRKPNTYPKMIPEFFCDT
Assay: inferred by the filing from LDH cytotoxicity of CAR-T cells on U87 (IL13Rα2+) versus 293FT (IL13Rα2-) cells
Method: In order to measure the cytotoxicity of IL13Rα2-specific CAR-T cells prepared in Example 2 (#1, #2, #5, #6, #7, #8, #11, or #12), cytotoxicity assay was performed using an LDH (Promega) kit. Specifically, CAR-T cells (effector cells) were used 10 days after activation of the cells with an anti-CD3 Ab, and the CAR-T cells (having a CAR expression rate of 20% to 40%) were added to a 6-well plate at a ratio 1:2, in which effector:target was 1×10⁶ cells:2×10⁶ cells and reacted at 37° C. for 24 hours.
An analysis was performed to examine whether IL13Rα2-specific CAR-T cells prepared in the present invention can effectively kill the target cancer cells (U87 expressing IL13Rα2).

Row | Binder | binding result
1 | CAR-containing polypeptide #6 (IL13Rα2-specific chimeric antigen receptor with human IL13.E11K.R64D.S67D.R107K binding domain, 4-1BB, IL-7Rα part, mutant CD3ζ) (receptor, Expressed on human T cells; also called CAR-T #6; PG13/#6) not shown | binds
2 | CAR-containing polypeptide #12 (IL13Rα2-specific chimeric antigen receptor with human IL13.E11K.R64D.S67D.R107K binding domain, 4-1BB, IL-2Rβ part, mutant CD3ζ) (receptor, Expressed on human T cells; also called CAR-T #12; PG13/#12) not shown | binds
